# Patent US20250043302A1, “MUTATED HYDROXYPHENYLPYRUVATE DIOXYGENASE POLYPEPTIDE, AND CODING GENE AND USE THEREOF” (BEIJING DABEINONG BIOTECHNOLOGY CO., LTD., priority 2021, published 2025)
# Where a chain is given by its changes, count along the chain named. Names and notes keep the numbering of the source.
# B1: AsHPPDm-A111T-F383W-02: nucleotide sequence encoding Avena sativa HPPD with A111T+F383W; vector DBN11782 (nucleic acid)
# DNA: ATGCCACCTACTCCAGCTACAGCTACTGGTGCTGCTGCTGCTGCCGTTACTCCTGAGCACGCTGCCAGGTCATTCCCCAGGGTGGTTCGCGTGAACCCCAGATCTGATAGGTTCCCAGTTCTGAGCTTCCACCATGTTGAGCTGTGGTGCGCTGATGCTGCTTCTGCTGCTGGCAGGTTCTCTTTCGCTCTTGGTGCTCCACTCGCTGCTAGATCTGATCTGTCTACAGGAAATAGCGCTCATGCCTCACTCCTGCTTCGCTCAGGTGCTTTGGCCTTCCTCTTCACCGCTCCATATGCTCCCCCACCTCAGGAGGCTGCTACTGCTGCTACTACAGCCTCCATTCCAAGCTTCTCAGCTGATGCCGCTAGAACCTTCGCTGCTGCTCATGGACTTGCCGTGAGGTCTGTTGGTGTTCGCGTGGCTGATGCTGCTGAGGCTTTCAGAGTTTCCGTTGCCGGCGGAGCTAGGCCAGCTTTCGCTCCTGCTGATTTGGGACATGGTTTCGGCCTGGCTGAGGTTGAGCTTTACGGTGACGTGGTTCTCCGCTTCGTGTCTTACCCAGATGAGACTGACCTGCCTTTCCTTCCCGGCTTCGAGAGAGTTTCCTCTCCTGGTGCCGTGGATTACGGCCTGACAAGGTTCGACCACGTGGTTGGAAACGTTCCCGAGATGGCTCCAGTGATCGATTACATGAAGGGCTTCCTTGGATTCCATGAGTTCGCCGAGTTCACTGCTGAGGACGTGGGAACCACTGAGTCCGGTTTGAACTCTGTGGTTCTCGCCAACAATTCTGAGGCTGTTTTGCTCCCTCTGAATGAGCCTGTGCATGGAACCAAGAGGAGAAGCCAGATTCAAACTTACCTGGAGTACCACGGTGGCCCTGGAGTTCAGCATATCGCCCTTGCTTCTAATGATGTGTTGCGCACACTCAGAGAGATGCGCGCCAGAACCCCCATGGGAGGTTTCGAGTTCATGGCCCCACCACAGGCTAAGTACTACGAGGGCGTTAGAAGGATTGCTGGAGACGTGTTGAGCGAGGAGCAGATCAAGGAGTGCCAAGAGCTGGGTGTTCTTGTGGATAGGGATGACCAGGGCGTTCTGCTTCAAATTTTCACTAAGCCAGTGGGCGACCGCCCTACATTCTGGCTTGAGATGATTCAAAGAATCGGCTGCATGGAGAAGGATGAGGTTGGACAGGAGTACCAAAAGGGCGGATGCGGTGGCTTCGGAAAGGGTAACTTCAGCGAGTTGTTCAAGTCAATCGAGGACTACGAGAAGAGCCTCGAGGTGAAGCAGTCAGTGGTTGCCCAAAAGTCCTGA
# modifications: AsHPPDm-A111T-F383W-02 Nucleotide Sequence
# notes: vector DBN11782
# B2: AsHPPDm-F415W-02: nucleotide sequence encoding Avena sativa HPPD with F415W; vector DBN11791 (nucleic acid)
# DNA: B1 DNA with A331G, G1148T, G1149C, T1244G, C1245G
# modifications: AsHPPDm-F415W-02 Nucleotide Sequence
# notes: vector DBN11791
# B3: AsHPPDm-F383Y-02: nucleotide sequence encoding Avena sativa HPPD with F383Y; vector DBN11795 (nucleic acid)
# DNA: B1 DNA with A331G, G1148A, G1149T
# modifications: AsHPPDm-F383Y-02 Nucleotide Sequence
# notes: vector DBN11795
# B4: AsHPPDm-F372A-F415W-02: nucleotide sequence encoding Avena sativa HPPD with F372A+F415W; vector DBN11792 (nucleic acid)
# DNA: B1 DNA with A331G, T1114G, T1115C, G1148T, G1149C, T1244G, C1245G
# modifications: AsHPPDm-F372A-F415W-02 Nucleotide Sequence
# notes: vector DBN11792
# Assays:
# [1] = tested on: Arabidopsis thaliana T1 plants; assay: Isoxaflutole tolerance of transgenic Arabidopsis thaliana T1 plants (spray, bleached leaf area grade, damage score); assay type: in vivo;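 as to Scores: Weighted damage index from 0 to 100 where higher means more damage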
# Summary of the method: (§1)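 Damage was assessed by bleaching grade (0 none; 1 <50%; 2 >50%; 3 100% of leaf area) one week after spraying. Sprays on 18-day-old T1 and wild-type plants used field-rate multiples: topramezone 25–200, isoxaflutole 35–280, mesotrione 52.5–420 g ai/ha.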
# [2] = tested on: Arabidopsis thaliana T1 plants; assay: Mesotrione tolerance of transgenic Arabidopsis thaliana T1 plants (spray, bleached leaf area grade, damage score); assay type: in vivo; parameters: Scores: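 damage score 0-100 computed as Σ(N×S)/(T×M)×100 over grades 0-3 with higher meaning more damage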
# Summary of the method: as §1
# [3] = isoxaflutole 140 g ai/ha, number of plants in grade
# [4] = isoxaflutole 280 g ai/ha, number of plants in grade
# [5] = mesotrione 210 g ai/ha, number of plants in grade
# [6] = mesotrione 420 g ai/ha, number of plants in grade
molecule,measurement,setting,value
B1,Resistance evaluation,"[1]; Table 11, isoxaflutole 140 g ai/ha (2×)",Moderately
same,Classification and statistics of the grade of pesticide damage Grade 0,"[1]; Table 11, isoxaflutole 140 g ai/ha (2×), number of plants at grade 0",6
same,Classification and statistics of the grade of pesticide damage Grade 1,"[1]; Table 11, isoxaflutole 140 g ai/ha (2×), number of plants at grade 1",8
same,Classification and statistics of the grade of pesticide damage Grade 2,"[1]; Table 11, isoxaflutole 140 g ai/ha (2×), number of plants at grade 2",2
same,Classification and statistics of the grade of pesticide damage Grade 3,"[1]; Table 11, isoxaflutole 140 g ai/ha (2×), number of plants at grade 3",0
same,Scores,"[1]; Table 11, isoxaflutole 140 g ai/ha (2×), pesticide damage score",25
same,Resistance evaluation,"[1]; Table 11, isoxaflutole 280 g ai/ha (4×)",Poorly resistant
same,Classification and statistics of the grade of pesticide damage Grade 0,"[1]; Table 11, isoxaflutole 280 g ai/ha (4×), number of plants at grade 0",4
same,Classification and statistics of the grade of pesticide damage Grade 1,"[1]; Table 11, isoxaflutole 280 g ai/ha (4×), number of plants at grade 1",4
same,Classification and statistics of the grade of pesticide damage Grade 2,"[1]; Table 11, isoxaflutole 280 g ai/ha (4×), number of plants at grade 2",8
same,Classification and statistics of the grade of pesticide damage Grade 3,"[1]; Table 11, isoxaflutole 280 g ai/ha (4×), number of plants at grade 3",0
same,Scores,"[1]; Table 11, isoxaflutole 280 g ai/ha (4×), pesticide damage score",42
same,Resistance evaluation,"[2]; Table 12, mesotrione 210 g ai/ha (2×)",Moderately
same,Classification and statistics of the grade of pesticide damage Grade 0,"[2]; Table 12, mesotrione 210 g ai/ha (2×), number of plants at grade 0",4
same,Classification and statistics of the grade of pesticide damage Grade 1,"[2]; Table 12, mesotrione 210 g ai/ha (2×), number of plants at grade 1",10
same,Classification and statistics of the grade of pesticide damage Grade 2,"[2]; Table 12, mesotrione 210 g ai/ha (2×), number of plants at grade 2",2
same,Classification and statistics of the grade of pesticide damage Grade 3,"[2]; Table 12, mesotrione 210 g ai/ha (2×), number of plants at grade 3",0
same,Scores,"[2]; Table 12, mesotrione 210 g ai/ha (2×), pesticide damage score",29
same,Resistance evaluation,"[2]; Table 12, mesotrione 420 g ai/ha (4×)",Poorly resistant
same,Classification and statistics of the grade of pesticide damage Grade 0,"[2]; Table 12, mesotrione 420 g ai/ha (4×), number of plants at grade 0",0
same,Classification and statistics of the grade of pesticide damage Grade 1,"[2]; Table 12, mesotrione 420 g ai/ha (4×), number of plants at grade 1",2
same,Classification and statistics of the grade of pesticide damage Grade 2,"[2]; Table 12, mesotrione 420 g ai/ha (4×), number of plants at grade 2",13
same,Classification and statistics of the grade of pesticide damage Grade 3,"[2]; Table 12, mesotrione 420 g ai/ha (4×), number of plants at grade 3",1
same,Scores,"[2]; Table 12, mesotrione 420 g ai/ha (4×), pesticide damage score",65
B2,Resistance evaluation,[1]; isoxaflutole 140 g ai/ha,Moderately
same,Scores,[1]; isoxaflutole 140 g ai/ha,31
same,Classification and statistics of the grade of pesticide damage Grade 0,[1]; [3],5
same,Classification and statistics of the grade of pesticide damage Grade 1,[1]; [3],7
same,Classification and statistics of the grade of pesticide damage Grade 2,[1]; [3],4
same,Classification and statistics of the grade of pesticide damage Grade 3,[1]; [3],0
same,Resistance evaluation,[1]; isoxaflutole 280 g ai/ha,Poorly
same,Scores,[1]; isoxaflutole 280 g ai/ha,63
same,Classification and statistics of the grade of pesticide damage Grade 0,[1]; [4],0
same,Classification and statistics of the grade of pesticide damage Grade 1,[1]; [4],2
same,Classification and statistics of the grade of pesticide damage Grade 2,[1]; [4],14
same,Classification and statistics of the grade of pesticide damage Grade 3,[1]; [4],0
same,Resistance evaluation,[2]; mesotrione 210 g ai/ha,Non-resistant
same,Scores,[2]; mesotrione 210 g ai/ha,81
same,Classification and statistics of the grade of pesticide damage Grade 0,[2]; [5],0
same,Classification and statistics of the grade of pesticide damage Grade 1,[2]; [5],0
same,Classification and statistics of the grade of pesticide damage Grade 2,[2]; [5],9
same,Classification and statistics of the grade of pesticide damage Grade 3,[2]; [5],7
same,Resistance evaluation,[2]; mesotrione 420 g ai/ha,Non-resistant
same,Scores,[2]; mesotrione 420 g ai/ha,100
same,Classification and statistics of the grade of pesticide damage Grade 0,[2]; [6],0
same,Classification and statistics of the grade of pesticide damage Grade 1,[2]; [6],0
same,Classification and statistics of the grade of pesticide damage Grade 2,[2]; [6],0
same,Classification and statistics of the grade of pesticide damage Grade 3,[2]; [6],16
B3,Resistance evaluation,[1]; isoxaflutole 140 g ai/ha,Non-resistant
same,Scores,[1]; isoxaflutole 140 g ai/ha,100
same,Classification and statistics of the grade of pesticide damage Grade 0,[1]; [3],0
same,Classification and statistics of the grade of pesticide damage Grade 1,[1]; [3],0
same,Classification and statistics of the grade of pesticide damage Grade 2,[1]; [3],0
same,Classification and statistics of the grade of pesticide damage Grade 3,[1]; [3],16
same,Resistance evaluation,[1]; isoxaflutole 280 g ai/ha,Non-resistant
same,Scores,[1]; isoxaflutole 280 g ai/ha,100
same,Classification and statistics of the grade of pesticide damage Grade 0,[1]; [4],0
same,Classification and statistics of the grade of pesticide damage Grade 1,[1]; [4],0
same,Classification and statistics of the grade of pesticide damage Grade 2,[1]; [4],0
same,Classification and statistics of the grade of pesticide damage Grade 3,[1]; [4],16
same,Resistance evaluation,[2]; mesotrione 210 g ai/ha,Non-resistant
same,Scores,[2]; mesotrione 210 g ai/ha,100
same,Classification and statistics of the grade of pesticide damage Grade 0,[2]; [5],0
same,Classification and statistics of the grade of pesticide damage Grade 1,[2]; [5],0
same,Classification and statistics of the grade of pesticide damage Grade 2,[2]; [5],0
same,Classification and statistics of the grade of pesticide damage Grade 3,[2]; [5],16
same,Resistance evaluation,[2]; mesotrione 420 g ai/ha,Non-resistant
same,Scores,[2]; mesotrione 420 g ai/ha,100
same,Classification and statistics of the grade of pesticide damage Grade 0,[2]; [6],0
same,Classification and statistics of the grade of pesticide damage Grade 1,[2]; [6],0
same,Classification and statistics of the grade of pesticide damage Grade 2,[2]; [6],0
same,Classification and statistics of the grade of pesticide damage Grade 3,[2]; [6],16
B4,Resistance evaluation,[1]; isoxaflutole 140 g ai/ha,Moderately
same,Scores,[1]; isoxaflutole 140 g ai/ha,31
same,Classification and statistics of the grade of pesticide damage Grade 0,[1]; [3],5
same,Classification and statistics of the grade of pesticide damage Grade 1,[1]; [3],7
same,Classification and statistics of the grade of pesticide damage Grade 2,[1]; [3],4
same,Classification and statistics of the grade of pesticide damage Grade 3,[1]; [3],0
same,Resistance evaluation,[1]; isoxaflutole 280 g ai/ha,Poorly
same,Scores,[1]; isoxaflutole 280 g ai/ha,63
same,Classification and statistics of the grade of pesticide damage Grade 0,[1]; [4],0
same,Classification and statistics of the grade of pesticide damage Grade 1,[1]; [4],3
same,Classification and statistics of the grade of pesticide damage Grade 2,[1]; [4],12
same,Classification and statistics of the grade of pesticide damage Grade 3,[1]; [4],1
same,Resistance evaluation,[2]; mesotrione 210 g ai/ha,Moderately
same,Scores,[2]; mesotrione 210 g ai/ha,31
same,Classification and statistics of the grade of pesticide damage Grade 0,[2]; [5],6
same,Classification and statistics of the grade of pesticide damage Grade 1,[2]; [5],6
same,Classification and statistics of the grade of pesticide damage Grade 2,[2]; [5],3
same,Classification and statistics of the grade of pesticide damage Grade 3,[2]; [5],1
same,Resistance evaluation,[2]; mesotrione 420 g ai/ha,Poorly resistant
same,Scores,[2]; mesotrione 420 g ai/ha,50
same,Classification and statistics of the grade of pesticide damage Grade 0,[2]; [6],0
same,Classification and statistics of the grade of pesticide damage Grade 1,[2]; [6],8
same,Classification and statistics of the grade of pesticide damage Grade 2,[2]; [6],8
same,Classification and statistics of the grade of pesticide damage Grade 3,[2]; [6],0
